Assay results: PMC9482650, “Quantitative fragmentomics allow affinity mapping of interactomes” (Nature Communications, 2022)

T1: CARD11, Q9BXL7
T1 sequence (Q9BXL7 662-765, limits assumed, looked up): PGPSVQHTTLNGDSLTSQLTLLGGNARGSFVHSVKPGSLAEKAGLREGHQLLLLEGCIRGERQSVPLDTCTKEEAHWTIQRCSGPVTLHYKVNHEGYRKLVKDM

T2: DLG3_2, Q92796
T2 sequence (Q92796 221-321, limits assumed, looked up): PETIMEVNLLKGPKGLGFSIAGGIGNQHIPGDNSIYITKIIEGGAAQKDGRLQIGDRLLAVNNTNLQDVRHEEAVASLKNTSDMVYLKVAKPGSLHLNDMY

T3: FRMPD1, Q5SYB0
T3 sequence (Q5SYB0 52-145, limits assumed, looked up): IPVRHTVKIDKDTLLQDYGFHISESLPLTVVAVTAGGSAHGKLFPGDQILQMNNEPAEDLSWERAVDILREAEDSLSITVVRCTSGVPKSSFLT

T4: GRIP1_4, Q9Y3R0
T4 sequence (Q9Y3R0 467-571, limits assumed, looked up): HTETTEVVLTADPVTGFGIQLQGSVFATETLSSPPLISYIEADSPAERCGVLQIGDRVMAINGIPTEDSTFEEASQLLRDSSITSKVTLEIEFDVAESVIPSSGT

T5: LIN7A, O14910
T5 sequence (O14910 103-200, limits assumed, looked up): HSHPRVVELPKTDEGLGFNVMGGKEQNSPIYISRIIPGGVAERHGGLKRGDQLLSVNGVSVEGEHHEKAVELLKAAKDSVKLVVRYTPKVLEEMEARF

T6: MPP6, Q9NZW5
T6 sequence (Q9NZW5 125-219, limits assumed, looked up): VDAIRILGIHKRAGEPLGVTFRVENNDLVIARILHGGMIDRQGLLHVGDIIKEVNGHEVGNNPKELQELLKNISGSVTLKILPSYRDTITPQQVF

T7: MPP7, Q5T2T1
T7 sequence (Q5T2T1 134-230, limits assumed, looked up): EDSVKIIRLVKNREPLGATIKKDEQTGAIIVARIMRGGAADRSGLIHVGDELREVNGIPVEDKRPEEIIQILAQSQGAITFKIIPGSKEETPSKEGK

T8: RAPGEF6, Q8TEU7
T8 sequence (Q8TEU7 525-625, limits assumed, looked up): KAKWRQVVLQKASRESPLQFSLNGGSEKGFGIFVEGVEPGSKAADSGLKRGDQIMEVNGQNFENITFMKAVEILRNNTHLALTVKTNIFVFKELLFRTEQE

T9: SNTG1, Q9NSN8
T9 sequence (Q9NSN8 52-150, limits assumed, looked up): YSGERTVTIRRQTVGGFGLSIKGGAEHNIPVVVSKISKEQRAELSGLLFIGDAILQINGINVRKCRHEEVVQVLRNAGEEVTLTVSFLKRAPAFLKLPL


Tests used:
Assay in all cases: holdup assay
Set-up in all cases: key: below the threshold = too weak to quantify, mostly under pKd 3.1 to 4
Conditions in all cases: plain residues with an end cap or a label only (N-terminal biotin on a linker: ado-ado)
AHNAK1, Q09666 = molecular target: AHNAK1, Q09666
Chain of AHNAK1, Q09666 (Q09666 4-100): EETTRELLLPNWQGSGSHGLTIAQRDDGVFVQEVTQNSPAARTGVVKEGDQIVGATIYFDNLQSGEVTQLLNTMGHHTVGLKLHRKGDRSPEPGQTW

CARD11, Q9BXL7 = molecular target: T1, CARD11, Q9BXL7
DLG1_2, Q12959 = molecular target: DLG1_2, Q12959
Chain of DLG1_2, Q12959 (Q12959 314-412): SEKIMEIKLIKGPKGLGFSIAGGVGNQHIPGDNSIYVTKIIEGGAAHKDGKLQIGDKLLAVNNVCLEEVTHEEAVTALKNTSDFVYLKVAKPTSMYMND

DLG3_2, Q92796 = molecular target: T2, DLG3_2, Q92796
FRMPD1, Q5SYB0 = molecular target: T3, FRMPD1, Q5SYB0
FRMPD2_3, Q68DX3 = molecular target: FRMPD2_3, Q68DX3
Chain of FRMPD2_3, Q68DX3 (Q68DX3 1073-1166): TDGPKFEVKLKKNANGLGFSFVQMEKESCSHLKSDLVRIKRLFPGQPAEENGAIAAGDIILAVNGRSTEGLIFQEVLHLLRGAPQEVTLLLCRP

GRIP1_4, Q9Y3R0 = molecular target: T4, GRIP1_4, Q9Y3R0
GRIP2_4, Q9C0E4 = molecular target: GRIP2_4, Q9C0E4
Chain of GRIP2_4, Q9C0E4 (Q9C0E4 446-548): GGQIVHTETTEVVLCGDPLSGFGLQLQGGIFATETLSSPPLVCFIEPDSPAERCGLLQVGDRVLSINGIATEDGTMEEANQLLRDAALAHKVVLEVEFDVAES

GRIP2_5, Q9C0E4 = molecular target: GRIP2_5, Q9C0E4
Chain of GRIP2_5, Q9C0E4 (Q9C0E4 544-642): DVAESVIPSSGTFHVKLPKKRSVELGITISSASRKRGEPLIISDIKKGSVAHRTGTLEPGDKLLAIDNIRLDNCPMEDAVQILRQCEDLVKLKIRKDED

GRIP2_6, Q9C0E4 = molecular target: GRIP2_6, Q9C0E4
Chain of GRIP2_6, Q9C0E4 (Q9C0E4 648-740): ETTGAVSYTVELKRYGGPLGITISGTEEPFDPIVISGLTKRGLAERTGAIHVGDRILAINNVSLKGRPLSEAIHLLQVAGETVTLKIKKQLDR

HTRA1, Q92743 = molecular target: HTRA1, Q92743
Chain of HTRA1, Q92743 (Q92743 360-477): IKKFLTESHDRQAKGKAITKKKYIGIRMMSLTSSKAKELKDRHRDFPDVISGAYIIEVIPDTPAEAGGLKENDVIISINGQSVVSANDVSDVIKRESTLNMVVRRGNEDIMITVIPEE

HTRA2, O43464 = molecular target: HTRA2, O43464
Chain of HTRA2, O43464 (O43464 355-458): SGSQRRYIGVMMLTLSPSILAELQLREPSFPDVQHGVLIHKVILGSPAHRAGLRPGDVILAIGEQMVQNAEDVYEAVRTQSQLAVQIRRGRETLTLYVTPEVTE

IL16_3, Q14005 = molecular target: IL16_3, Q14005
Chain of IL16_3, Q14005 (Q14005 1107-1207): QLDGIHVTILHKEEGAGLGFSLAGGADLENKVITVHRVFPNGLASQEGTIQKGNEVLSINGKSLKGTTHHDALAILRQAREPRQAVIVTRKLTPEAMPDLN

IL16_4, Q14005 = molecular target: IL16_4, Q14005
Chain of IL16_4, Q14005 (Q14005 1229-1329): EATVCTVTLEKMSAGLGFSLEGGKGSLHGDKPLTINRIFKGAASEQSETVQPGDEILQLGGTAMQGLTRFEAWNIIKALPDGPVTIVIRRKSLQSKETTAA

Inadl_9, Q8NI35 = molecular target: Inadl_9, Q8NI35
Chain of Inadl_9, Q8NI35 (Q8NI35 1530-1615): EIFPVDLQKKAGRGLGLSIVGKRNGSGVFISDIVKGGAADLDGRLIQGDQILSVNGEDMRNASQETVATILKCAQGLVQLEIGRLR

LDB3, O75112 = molecular target: LDB3, O75112
Chain of LDB3, O75112 (O75112 1-94): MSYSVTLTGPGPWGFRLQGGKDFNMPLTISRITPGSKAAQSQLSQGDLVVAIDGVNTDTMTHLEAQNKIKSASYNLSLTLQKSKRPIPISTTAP

LIMK2, P53671 = molecular target: LIMK2, P53671
Chain of LIMK2, P53671 (P53671 143-248): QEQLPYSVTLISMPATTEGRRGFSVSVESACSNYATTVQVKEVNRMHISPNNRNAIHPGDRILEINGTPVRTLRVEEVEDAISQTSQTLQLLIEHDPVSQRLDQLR

LIN7A, O14910 = molecular target: T5, LIN7A, O14910
LNX1_1, Q8TBB1 = molecular target: LNX1_1, Q8TBB1
Chain of LNX1_1, Q8TBB1 (Q8TBB1 261-371): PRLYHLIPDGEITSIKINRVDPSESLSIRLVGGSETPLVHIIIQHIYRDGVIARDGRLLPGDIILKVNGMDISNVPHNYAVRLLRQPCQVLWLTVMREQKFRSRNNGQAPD

LNX1_3, Q8TBB1 = molecular target: LNX1_3, Q8TBB1
Chain of LNX1_3, Q8TBB1 (Q8TBB1 500-596): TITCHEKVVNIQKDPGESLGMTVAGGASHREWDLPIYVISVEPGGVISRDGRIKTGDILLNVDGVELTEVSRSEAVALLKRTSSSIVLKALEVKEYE

MAGI1_1, Q96QZ7 = molecular target: MAGI1_1, Q96QZ7
Chain of MAGI1_1, Q96QZ7 (Q96QZ7 1-106): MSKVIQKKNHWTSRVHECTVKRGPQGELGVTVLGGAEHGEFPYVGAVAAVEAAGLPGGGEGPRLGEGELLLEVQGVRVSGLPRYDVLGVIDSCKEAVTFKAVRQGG

MAGI1_2, Q96QZ7 = molecular target: MAGI1_2, Q96QZ7
Chain of MAGI1_2, Q96QZ7 (Q96QZ7 456-580): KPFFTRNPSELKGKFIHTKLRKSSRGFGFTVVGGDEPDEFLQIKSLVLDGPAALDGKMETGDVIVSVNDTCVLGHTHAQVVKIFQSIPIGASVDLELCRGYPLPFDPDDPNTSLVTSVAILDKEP

MAST1, Q9Y2H9 = molecular target: MAST1, Q9Y2H9
Chain of MAST1, Q9Y2H9 (Q9Y2H9 962-1065): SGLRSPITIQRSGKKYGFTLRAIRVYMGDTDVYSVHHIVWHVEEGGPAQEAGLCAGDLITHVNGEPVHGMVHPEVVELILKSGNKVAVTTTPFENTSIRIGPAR

MPP6, Q9NZW5 = molecular target: T6, MPP6, Q9NZW5
MPP7, Q5T2T1 = molecular target: T7, MPP7, Q5T2T1
NHERF4_4, Q86UT5 = molecular target: NHERF4_4, Q86UT5
Chain of NHERF4_4, Q86UT5 (Q86UT5 464-550): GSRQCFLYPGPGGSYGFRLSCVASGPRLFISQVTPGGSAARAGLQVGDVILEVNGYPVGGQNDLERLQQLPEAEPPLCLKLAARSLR

PDZRN4_1, Q6ZMN7 = molecular target: PDZRN4_1, Q6ZMN7
Chain of PDZRN4_1, Q6ZMN7 (Q6ZMN7 213-318): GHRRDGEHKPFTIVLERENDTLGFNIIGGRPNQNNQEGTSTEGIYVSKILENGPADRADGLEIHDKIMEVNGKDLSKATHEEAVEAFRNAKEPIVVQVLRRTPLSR

RAPGEF6, Q8TEU7 = molecular target: T8, RAPGEF6, Q8TEU7
SNTG1, Q9NSN8 = molecular target: T9, SNTG1, Q9NSN8

| pKd (AHNAK1, Q09666) | pKd (CARD11, Q9BXL7) | pKd (DLG1_2, Q12959) | pKd (DLG3_2, Q92796) | pKd (FRMPD1, Q5SYB0) | pKd (FRMPD2_3, Q68DX3) | pKd (GRIP1_4, Q9Y3R0) | pKd (GRIP2_4, Q9C0E4) | pKd (GRIP2_5, Q9C0E4) | pKd (GRIP2_6, Q9C0E4) | pKd (HTRA1, Q92743) | pKd (HTRA2, O43464) | pKd (IL16_3, Q14005) | pKd (IL16_4, Q14005) | pKd (Inadl_9, Q8NI35) | pKd (LDB3, O75112) | pKd (LIMK2, P53671) | pKd (LIN7A, O14910) | pKd (LNX1_1, Q8TBB1) | pKd (LNX1_3, Q8TBB1) | Binder | further results |
| --- | --- | --- | --- | --- | --- | --- | --- | --- | --- | --- | --- | --- | --- | --- | --- | --- | --- | --- | --- | --- | --- |
| below the threshold | below the threshold | below the threshold | below the threshold | below the threshold | below the threshold | below the threshold | below the threshold | below the threshold | below the threshold | below the threshold | below the threshold | below the threshold | below the threshold | below the threshold | below the threshold | below the threshold | below the threshold | below the threshold | below the threshold | IKAIVDLTGL [TRAF2, Q12933] | pKd (MAGI1_1, Q96QZ7): below the threshold; pKd (MAGI1_2, Q96QZ7): below the threshold; pKd (MAST1, Q9Y2H9): 3.63; pKd (MPP6, Q9NZW5): 3.49; pKd (MPP7, Q5T2T1): below the threshold; pKd (NHERF4_4, Q86UT5): below the threshold; pKd (PDZRN4_1, Q6ZMN7): below the threshold; pKd (RAPGEF6, Q8TEU7): below the threshold; pKd (SNTG1, Q9NSN8): below the threshold |
| below the threshold | below the threshold | below the threshold | below the threshold | below the threshold | below the threshold | below the threshold | below the threshold | below the threshold | below the threshold | 4.48 | below the threshold | below the threshold | below the threshold | below the threshold | below the threshold | below the threshold | below the threshold | below the threshold | below the threshold | EKKTLIGIKL [GOT1L1, Q8NHS2] | pKd (MAGI1_1, Q96QZ7): below the threshold; pKd (MAGI1_2, Q96QZ7): below the threshold; pKd (MAST1, Q9Y2H9): 3.95; pKd (MPP6, Q9NZW5): below the threshold; pKd (MPP7, Q5T2T1): below the threshold; pKd (NHERF4_4, Q86UT5): 3.5; pKd (PDZRN4_1, Q6ZMN7): below the threshold; pKd (RAPGEF6, Q8TEU7): below the threshold; pKd (SNTG1, Q9NSN8): below the threshold |
| below the threshold | below the threshold | below the threshold | below the threshold | below the threshold | below the threshold | below the threshold | below the threshold | below the threshold | below the threshold | below the threshold | below the threshold | below the threshold | below the threshold | below the threshold | below the threshold | below the threshold | below the threshold | below the threshold | below the threshold | SARSRLSSNL [HCN2, Q9UL51] | pKd (MAGI1_1, Q96QZ7): below the threshold; pKd (MAGI1_2, Q96QZ7): 4.17; pKd (MAST1, Q9Y2H9): 4.65; pKd (MPP6, Q9NZW5): below the threshold; pKd (MPP7, Q5T2T1): below the threshold; pKd (NHERF4_4, Q86UT5): below the threshold; pKd (PDZRN4_1, Q6ZMN7): 3.53; pKd (RAPGEF6, Q8TEU7): below the threshold; pKd (SNTG1, Q9NSN8): below the threshold |

Second part, the binder before the results:

| Binder | pKd (AHNAK1, Q09666) | pKd (CARD11, Q9BXL7) | pKd (DLG1_2, Q12959) | pKd (DLG3_2, Q92796) | pKd (FRMPD1, Q5SYB0) | pKd (FRMPD2_3, Q68DX3) | pKd (GRIP1_4, Q9Y3R0) | pKd (GRIP2_4, Q9C0E4) | pKd (GRIP2_5, Q9C0E4) | pKd (GRIP2_6, Q9C0E4) | pKd (HTRA1, Q92743) | pKd (HTRA2, O43464) | pKd (IL16_3, Q14005) | pKd (IL16_4, Q14005) | pKd (Inadl_9, Q8NI35) | pKd (LDB3, O75112) | pKd (LIMK2, P53671) | pKd (LIN7A, O14910) | pKd (LNX1_1, Q8TBB1) | pKd (LNX1_3, Q8TBB1) | further results |
| --- | --- | --- | --- | --- | --- | --- | --- | --- | --- | --- | --- | --- | --- | --- | --- | --- | --- | --- | --- | --- | --- |
| GSGAVEMESV [AQP6, Q13520] | below the threshold | below the threshold | below the threshold | below the threshold | below the threshold | below the threshold | below the threshold | below the threshold | below the threshold | below the threshold | below the threshold | below the threshold | below the threshold | below the threshold | below the threshold | below the threshold | below the threshold | below the threshold | below the threshold | below the threshold | pKd (MAGI1_1, Q96QZ7): below the threshold; pKd (MAGI1_2, Q96QZ7): below the threshold; pKd (MAST1, Q9Y2H9): 3.65; pKd (MPP6, Q9NZW5): below the threshold; pKd (MPP7, Q5T2T1): below the threshold; pKd (NHERF4_4, Q86UT5): below the threshold; pKd (PDZRN4_1, Q6ZMN7): below the threshold; pKd (RAPGEF6, Q8TEU7): below the threshold; pKd (SNTG1, Q9NSN8): below the threshold |
| EALLQMESVA [CAVIN3, Q969G5] | below the threshold | below the threshold | below the threshold | 4.21 | below the threshold | below the threshold | below the threshold | below the threshold | below the threshold | below the threshold | 3.93 | below the threshold | below the threshold | below the threshold | below the threshold | below the threshold | below the threshold | below the threshold | 3.81 | below the threshold | pKd (MAGI1_1, Q96QZ7): below the threshold; pKd (MAGI1_2, Q96QZ7): below the threshold; pKd (MAST1, Q9Y2H9): 3.86; pKd (MPP6, Q9NZW5): below the threshold; pKd (MPP7, Q5T2T1): below the threshold; pKd (NHERF4_4, Q86UT5): below the threshold; pKd (PDZRN4_1, Q6ZMN7): below the threshold; pKd (RAPGEF6, Q8TEU7): below the threshold; pKd (SNTG1, Q9NSN8): below the threshold |
